Measured values reported in the MegaScale stability set (Tsuboyama et al. 2023).

B1: HEEH_KT_rd6_0007 (parent)
chain: SIEEEIKKAEEAKEKGKTFIHGDFVATTEELLDELLKRLRKKL
B2: HHH_rd2_0155 (parent)
chain: PPDDERKKAEKAARSGNEEKAREILERLGYSEDEARELAKRLR

Variants of: B1
Experiment: folding stability dG (cDNA display proteolysis); higher = more stable
Details: PBS, room temperature

Variant | folding stability dG
T27K | 1.09 kcal/mol
T27H | 1.41 kcal/mol
T27L | 1.22 kcal/mol
T27E | 1.24 kcal/mol
R38W | 2 kcal/mol
L31Q | 1.75 kcal/mol
L31H | 1.08 kcal/mol
L31R | 0.535 kcal/mol
L31D | 1.52 kcal/mol
L31W | 0.95 kcal/mol
L31M | 1.65 kcal/mol
L31N | 0.715 kcal/mol
G22L | 1.2 kcal/mol
G22E | 1.12 kcal/mol
G22N | 0.979 kcal/mol
A26P | 0.691 kcal/mol
A26F | 1.2 kcal/mol
A26Y | 1.6 kcal/mol
A26C | 1.24 kcal/mol
V25D | 0.749 kcal/mol
V25W | 1.39 kcal/mol
V25C | 1.94 kcal/mol
V25Q | 1.07 kcal/mol
K17R | 1.13 kcal/mol
K42F | 1.38 kcal/mol
K42Y | 1.5 kcal/mol

Variant | folding stability dG
K42V | 1.23 kcal/mol
K42R | 1.34 kcal/mol
K42N | 0.7 kcal/mol
K42T | 1.19 kcal/mol
K42P | 0.483 kcal/mol
K42W | 1.83 kcal/mol
H21P | 0.759 kcal/mol
H21R | 0.838 kcal/mol
H21I | 1.03 kcal/mol
K15N | 1.32 kcal/mol
K15E | 0.916 kcal/mol
K15S | 1.19 kcal/mol
K15I | 0.793 kcal/mol
K15M | 1.37 kcal/mol
E30V | 0.976 kcal/mol
E30L | 1.14 kcal/mol
E30S | 1.12 kcal/mol
E5N | 1.05 kcal/mol
E5H | 1.11 kcal/mol
E5T | 1.84 kcal/mol
E5Q | 1.61 kcal/mol
E5L | 2.35 kcal/mol
E5R | 1.09 kcal/mol
E34A | 1.19 kcal/mol
E34Y | 1.4 kcal/mol
E34H | 1.02 kcal/mol

Variant | folding stability dG
E34W | 1.86 kcal/mol
E34D | 0.87 kcal/mol
E34F | 1.4 kcal/mol
L39N | 0.087 kcal/mol
F19Q | 0.715 kcal/mol
F19V | 0.861 kcal/mol
F19I | 0.902 kcal/mol
F19A | 0.757 kcal/mol
E3G | 0.881 kcal/mol
E3R | 1.2 kcal/mol
E3K | 1.16 kcal/mol
E3H | 1.12 kcal/mol
E3S | 1.07 kcal/mol
E4D | 1.27 kcal/mol
E4I | 1.03 kcal/mol
E4R | 1.07 kcal/mol
E4M | 1.26 kcal/mol
T18N | 1.07 kcal/mol
L35S | 0.043 kcal/mol
L35G | 0.119 kcal/mol
L35H | 0.458 kcal/mol
E14V | 1.25 kcal/mol
E14H | 1.21 kcal/mol
E14R | 1.68 kcal/mol
E14S | 1.4 kcal/mol
E14T | 1.3 kcal/mol

Variant | folding stability dG
E14I | 1.45 kcal/mol
K8V | 0.672 kcal/mol
F24E | 0.854 kcal/mol
F24T | 0.846 kcal/mol
F24Q | 0.726 kcal/mol
E29L | 1.64 kcal/mol
E29P | 1.78 kcal/mol
E11H | 0.939 kcal/mol
E11C | 1.5 kcal/mol
E11S | 0.928 kcal/mol
E11I | 1.03 kcal/mol
A9H | 0.516 kcal/mol
A9E | 0.511 kcal/mol
A9Q | 0.596 kcal/mol
A9M | 0.926 kcal/mol
I6S | 0.742 kcal/mol
I6V | 0.729 kcal/mol
A12Q | 0.606 kcal/mol
A12S | 0.754 kcal/mol
A12M | 0.749 kcal/mol
A12T | 0.618 kcal/mol
A12W | 0.691 kcal/mol
K13T | 0.5 kcal/mol
K13W | 1.09 kcal/mol
K13D | 0.676 kcal/mol
E10P | 0.607 kcal/mol

Variant | folding stability dG
E10L | 1.58 kcal/mol
E10A | 0.805 kcal/mol
E10T | 1.06 kcal/mol
S1L | 1.23 kcal/mol
S1V | 1.01 kcal/mol
S1R | 1.27 kcal/mol
S1F | 1.23 kcal/mol
L36N | 0.046 kcal/mol
L36K | -0.007 kcal/mol
D33T | 1.1 kcal/mol
D33H | 1.04 kcal/mol
D33F | 1.32 kcal/mol
D33S | 1.04 kcal/mol
D33G | 0.853 kcal/mol
K41V | 1.07 kcal/mol
K41A | 1.57 kcal/mol
R40A | 0.53 kcal/mol
R40S | 0.38 kcal/mol
R40V | 0.699 kcal/mol
K7D | 0.626 kcal/mol
K7W | 0.964 kcal/mol
K7T | 0.994 kcal/mol
K7I | 1.01 kcal/mol
K7Y | 0.923 kcal/mol
I20L | 0.842 kcal/mol
I20S | 0.913 kcal/mol

Variant | folding stability dG
K37C | 2.06 kcal/mol
K37N | 1.17 kcal/mol
K37W | 0.832 kcal/mol
K37T | 1.26 kcal/mol
T28Q | 0.473 kcal/mol
G16I | 1.03 kcal/mol
G16M | 0.701 kcal/mol
G16L | 1.22 kcal/mol
L43F | 1.05 kcal/mol
L43A | 0.591 kcal/mol
L43K | 0.822 kcal/mol
L43C | 1.31 kcal/mol
I2W | 1.04 kcal/mol
I2D | 0.705 kcal/mol
I2R | 0.776 kcal/mol
I2E | 0.545 kcal/mol
I2M | 0.866 kcal/mol
I2K | 0.732 kcal/mol
L32P | 0.168 kcal/mol
L32A | 0.414 kcal/mol
L32C | 0.637 kcal/mol
D23A | 1.26 kcal/mol
D23M | 1.26 kcal/mol

Variants of: B2
Experiment: as above
Details: PBS, room temperature

Variant | folding stability dG
K40N | 1.79 kcal/mol
K40A | 2.06 kcal/mol
K40F | 1.8 kcal/mol
K40I | 1.61 kcal/mol
K40Y | 1.98 kcal/mol
K40G | 1.44 kcal/mol
K40L | 1.81 kcal/mol
K40D | 1.31 kcal/mol
K40W | 2.08 kcal/mol
K40S | 1.97 kcal/mol
K40M | 2.22 kcal/mol
K40P | 0.1 kcal/mol
K40V | 1.43 kcal/mol
K40E | 1.76 kcal/mol
